Measurements published in patent publication US20230416363A1 (KADMON, published 2023).

Assays:
[1] = molecular target: T1, hPD1 (soluble, ELISA of Example 20) (human, UniProt Q15116 25-167, limits assumed); test: ELISA, hPD1
[2] = molecular target: T2, mouse PD-1 expressed on cells (mouse, UniProt Q02242 25-288); test: flow cytometry, mPD1-293 cells
T2 construct: whole, on cells
T2 sequence (looked up): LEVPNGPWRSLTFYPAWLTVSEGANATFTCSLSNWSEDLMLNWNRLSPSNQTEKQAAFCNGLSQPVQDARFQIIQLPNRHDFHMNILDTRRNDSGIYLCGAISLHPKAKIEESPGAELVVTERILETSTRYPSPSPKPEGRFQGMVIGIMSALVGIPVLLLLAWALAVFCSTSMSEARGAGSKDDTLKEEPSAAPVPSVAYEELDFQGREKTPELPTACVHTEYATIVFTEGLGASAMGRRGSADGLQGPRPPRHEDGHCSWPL

[3] = molecular target: T3, mPD1 (soluble, ELISA of Examples 20 and 24) (mouse, UniProt Q02242 25-167, limits assumed); test: blocking ELISA, mPD1 to mPDL1
T3 construct: also called Biotin-mPD1
T3 sequence (looked up): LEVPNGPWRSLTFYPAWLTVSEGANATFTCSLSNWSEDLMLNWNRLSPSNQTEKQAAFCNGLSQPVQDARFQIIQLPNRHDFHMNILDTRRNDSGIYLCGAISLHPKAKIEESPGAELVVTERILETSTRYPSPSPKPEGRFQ

[4] = molecular target: T4, human PD-1 expressed on cells (human, UniProt Q15116 25-288); test: flow cytometry, hPD1-293 cells
T4 construct: whole, on cells
T4 sequence (Q15116 25-288): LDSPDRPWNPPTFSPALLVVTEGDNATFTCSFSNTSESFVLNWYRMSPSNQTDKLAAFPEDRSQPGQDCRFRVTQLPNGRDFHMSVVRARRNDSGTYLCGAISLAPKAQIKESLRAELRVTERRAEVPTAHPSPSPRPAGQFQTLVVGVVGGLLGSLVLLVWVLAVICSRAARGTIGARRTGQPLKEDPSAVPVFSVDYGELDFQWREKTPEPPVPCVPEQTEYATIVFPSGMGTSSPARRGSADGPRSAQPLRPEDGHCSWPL

[5] = molecular target: T5, mPD-1-his (mouse, UniProt Q02242 25-167, limits assumed); test: SPR Biacore, mPD1-his
T5 construct: domain: IgV domain
T5 sequence: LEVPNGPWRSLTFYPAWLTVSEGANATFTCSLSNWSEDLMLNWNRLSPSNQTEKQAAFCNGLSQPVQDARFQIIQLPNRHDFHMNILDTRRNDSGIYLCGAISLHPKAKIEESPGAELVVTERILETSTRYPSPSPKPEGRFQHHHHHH

[6] = molecular target: T6, hPD-1-Fc (human, UniProt Q15116 25-167); test: SPR Biacore, hPD1-Fc
T6 construct: domain: IgV domain; also called human PD-1-Fc; not shown: human IgG1 Fc
T6 sequence (Q15116 25-167 limits assumed): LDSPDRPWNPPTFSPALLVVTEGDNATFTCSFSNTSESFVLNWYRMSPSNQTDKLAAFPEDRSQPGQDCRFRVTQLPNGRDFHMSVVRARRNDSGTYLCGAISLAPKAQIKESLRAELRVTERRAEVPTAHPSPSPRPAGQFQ

[7] = molecular target: T3, mPD1 (soluble, ELISA of Examples 20 and …); test: ELISA, biotin-mPD1 on streptavidin
[8] = molecular target: T3, mPD1 (soluble, ELISA of Examples 20 and …); test: ELISA, mPD1
[9] = molecular target: T7, mPD-1-Fc (mouse; human, UniProt Q02242 25-167, limits assumed); test: SPR Biacore, mPD1-Fc
T7 construct: domain: IgV domain; not shown: human IgG1 Fc
T7 sequence (looked up): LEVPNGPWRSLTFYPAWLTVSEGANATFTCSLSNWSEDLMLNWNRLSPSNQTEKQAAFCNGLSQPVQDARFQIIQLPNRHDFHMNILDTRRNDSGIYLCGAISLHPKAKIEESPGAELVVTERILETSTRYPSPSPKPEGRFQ

[10] = molecular target: T2, mouse PD-1 expressed on cells; test: flow cytometry, mPD1-eff cells
[11] = molecular target: T2, mouse PD-1 expressed on cells; test: cell-based or functional assay
[12] = molecular target: T4, human PD-1 expressed on cells; test: cell-based or functional assay
[13] = molecular target: T4, human PD-1 expressed on cells; test: flow cytometry, hPD1-Jurkat cells
[14] = molecular target: T1, hPD1 (soluble, ELISA of Example 20); test: blocking ELISA, hPD1 to hPDL1

T1 sequence (Q15116 25-167 limits assumed): as the sequence (Q15116 25-167 limits assumed) above

B1: m4D1 (antibody, V domains shown)
VH: QVQLVQSGAEVKKPGASVKVSCKASGHTFTSYYIHWVRQAPGQGLEWMGIINPSGGSTSYAQKFQGRVTMTRDTSTSTVYMELSSLRSEDTAVYYCARDRAYGGAGDYWGQGTLVTVSS
VL: DIQMTQSPSSLSASVGDRVTITCRASQSISAWLAWYQQKPGKAPKLLIYKASSLESGVPSRFSGSGSGTDFTLTISSLQPEDFATYYCQQSYSPPATFGGGTKVEIK
notes: R3A9 derivative
With B1 the EC50 [1] was 0.221 nM, the EC50 [2] was 1.14 nM and the IC50 [3] was 0.882 nM. For the same binder, the EC50 [4] was 1.48 nM, the Kd [5] was 2.87 nM and the koff [5] was 0.000201 s⁻¹. It also gave a kon [5] of 70000 M⁻¹ s⁻¹, a Kd [6] of 1.09 nM and a koff [6] of 6.36e-05 s⁻¹. It also gave a kon [6] of 58300 M⁻¹ s⁻¹, an EC50 [7] of 1.15 nM and an EC50 [8] of 2.03 nM. The Kd [9] was 2.69 nM, the koff [9] was 0.000179 s⁻¹ and the kon [9] was 66300 M⁻¹ s⁻¹. The EC50 [10] was 0.441 nM, the “IC50, Promega blockade bioassay” value [11] was 0.572 nM and the “IC50, Promega blockade bioassay” value [12] was 2.12 nM. For the same binder, the EC50 [13] was 0.738 nM and the IC50 [14] was 6.02 nM.
